What was measured:
[1] = target: recombinant F. hepatica cathepsin L3 (FhCL3), activated mature enzyme (Fasciola hepatica)
[2] = target: recombinant F. hepatica cathepsin L1 (FhCL1), activated mature enzyme (Fasciola hepatica)
[3] = target: recombinant F. hepatica cathepsin L3 (FhCL3), activated mature enzyme (Fasciola hepatica); remark: listed apart in the source
[4] = target: recombinant F. hepatica cathepsin L2 (FhCL2), activated mature enzyme (Fasciola hepatica)
[5] = target: recombinant F. hepatica cathepsin L1 (FhCL1), activated mature enzyme (Fasciola hepatica); remark: listed apart in the source
[6] = target: human cathepsin L (HsCL) (human); assay: enzyme inhibition kinetics (Ki, Morrison equation)
[7] = target: recombinant F. hepatica cathepsin L3 (FhCL3), activated mature enzyme (Fasciola hepatica); assay: enzyme inhibition kinetics (Ki, Morrison equation)
[8] = target: recombinant F. hepatica cathepsin L2 (FhCL2), activated mature enzyme (Fasciola hepatica); assay: enzyme inhibition kinetics (Ki, Morrison equation)
[9] = target: recombinant F. hepatica cathepsin L1 (FhCL1), activated mature enzyme (Fasciola hepatica); assay: enzyme inhibition kinetics (Ki, Morrison equation)
[10] = target: human cathepsin K (HsCK) (human) (UniProt P43235); assay: enzyme inhibition kinetics (Ki, Morrison equation)
human cathepsin K (HsCK) (human), sequence (P43235 115-329): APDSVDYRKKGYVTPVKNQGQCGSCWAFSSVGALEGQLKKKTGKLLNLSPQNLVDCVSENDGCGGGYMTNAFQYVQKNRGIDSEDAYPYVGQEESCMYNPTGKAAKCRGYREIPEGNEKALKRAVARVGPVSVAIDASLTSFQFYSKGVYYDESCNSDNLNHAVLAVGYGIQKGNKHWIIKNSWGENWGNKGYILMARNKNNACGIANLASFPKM

33-mer synthetic peptide derived from the FhCL3 propeptide (p45 to p77)
percent reduction of peptidase activity by 500 nM 33-mer peptide, pH 7.0 [1]: 50%
percent reduction of peptidase activity by 500 nM 33-mer peptide, pH 7.0 [2]: 30%

ppFhCL3_Glu^68/Arg^68 (domain or fragment)
percent inhibition of recombinant peptidase activity by 10 nM propeptide, pH 7.0 [3]: < 20%
percent inhibition of recombinant peptidase activity by 10 nM propeptide, pH 7.0 [4]: < 20%
percent inhibition of recombinant peptidase activity by 10 nM propeptide, pH 7.0 [5]: 95%
Ki [6]: 6.04 nM
Ki [7]: 0.002 nM
Ki [8]: 0.02 nM
Ki [9]: 0.3 nM
Ki [10]: 1.4 nM

ppFhCL3_Leu^66/Gly^66 (domain or fragment)
percent inhibition of recombinant peptidase activity by 10 nM propeptide, pH 7.0 [5]: 90%
Ki [6]: > 10000 nM
Ki [7]: 8 nM
Ki [8]: > 10000 nM
Ki [9]: 0.05 nM
Ki [10]: > 10000 nM

ppFhCL3_Tyr^46Lys^47/Ala^46Ala^47 (domain or fragment)
percent inhibition of recombinant peptidase activity by 10 nM propeptide, pH 7.0 [5]: 85%
Ki [6]: > 10000 nM
Ki [7]: > 10000 nM
Ki [8]: > 10000 nM
Ki [9]: 1.26 nM
Ki [10]: > 10000 nM

recombinant FhCL3 propeptide (ppFhCL3), wild type (from UniProt A0A879R2T5 1-326) (domain or fragment)
percent inhibition of recombinant peptidase activity by 10 nM propeptide, pH 7.0 [3]: 100%
percent inhibition of recombinant peptidase activity by 10 nM propeptide, pH 7.0 [4]: 97%
percent inhibition of recombinant peptidase activity by 10 nM propeptide, pH 7.0 [5]: 98%
Ki [6]: 26.6 nM
Ki [7]: < 0.002 nM
Ki [8]: 0.004 nM
Ki [9]: 0.04 nM
Ki [10]: 2 nM

Reference: PMC7720491
